From patent US20100272709A1 (GENERAL HOSPITAL, published 2010)
Numbering of substitutions follows the chain as printed.

What was measured:
[1] = biological target: wild type dynamin (dynWT; recombinant dynamin 1) (UniProt Q05193)
[2] = biological target: mouse monoclonal anti-dynamin GTPase antibody (Stressgene), recognizes the N-terminal GTPase domain; test: FLIM/FRET in fixed podocytes; lifetime of donor GTPase-Alexa488 with acceptor GAR-Alexa568; - control
[3] = biological target: dynK44A (dominant-negative dynamin mutant that cannot bind GTP) (UniProt Q05193); test: FLIM/FRET in fixed podocytes; donor GTPase-a488, acceptor Hudy1-a568; self-assembly
[4] = biological target: dynK44A (dominant-negative dynamin mutant that cannot bind GTP) (UniProt Q05193); test: FLIM/FRET in fixed podocytes treated with cytochalasin D; donor GTPase-a488, acceptor Hudy1-a568; self-assembly
[5] = biological target: mouse monoclonal anti-dynamin GTPase antibody (Stressgene), recognizes the N-terminal GTPase domain; test: FLIM/FRET in fixed podocytes; lifetime of donor GTPase-a488 with acceptor DAM-a568; + control
[6] = biological target: mouse monoclonal anti-dynamin GTPase antibody (Stressgene), recognizes the N-terminal GTPase domain; test: FLIM/FRET in fixed podocytes; lifetime of donor GTPase-Alexa488 with acceptor DAM-Alexa568; + control
[7] = biological target: dynK44A (dominant-negative dynamin mutant that cannot bind GTP), Q05193
[8] = biological target: T1, dynR725A (GTP-hydrolysis impaired dynamin mutant)
T1 chain: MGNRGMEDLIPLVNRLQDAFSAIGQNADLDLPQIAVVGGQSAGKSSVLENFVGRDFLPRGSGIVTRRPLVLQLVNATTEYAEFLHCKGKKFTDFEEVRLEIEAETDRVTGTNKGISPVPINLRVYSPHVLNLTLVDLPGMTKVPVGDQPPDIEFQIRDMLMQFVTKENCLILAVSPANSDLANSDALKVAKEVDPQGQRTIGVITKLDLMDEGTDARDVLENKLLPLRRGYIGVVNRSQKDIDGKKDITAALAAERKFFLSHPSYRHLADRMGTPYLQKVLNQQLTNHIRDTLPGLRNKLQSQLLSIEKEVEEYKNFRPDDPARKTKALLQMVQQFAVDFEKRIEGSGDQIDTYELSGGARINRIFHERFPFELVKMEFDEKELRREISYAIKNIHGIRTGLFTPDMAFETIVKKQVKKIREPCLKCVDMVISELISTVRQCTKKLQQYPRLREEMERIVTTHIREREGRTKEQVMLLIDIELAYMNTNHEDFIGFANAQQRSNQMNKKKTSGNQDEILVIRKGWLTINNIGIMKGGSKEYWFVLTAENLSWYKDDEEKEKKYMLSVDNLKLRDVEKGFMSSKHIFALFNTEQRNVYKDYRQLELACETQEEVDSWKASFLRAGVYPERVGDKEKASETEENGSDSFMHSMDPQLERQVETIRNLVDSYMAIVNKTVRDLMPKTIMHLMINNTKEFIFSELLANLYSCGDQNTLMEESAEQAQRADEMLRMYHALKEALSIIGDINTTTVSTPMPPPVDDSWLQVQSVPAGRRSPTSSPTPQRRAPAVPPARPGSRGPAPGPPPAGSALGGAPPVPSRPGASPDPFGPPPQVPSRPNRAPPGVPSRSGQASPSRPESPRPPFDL

[9] = biological target: wild type dynamin (dynWT; recombinant dynamin 1), Q05193
[10] = biological target: T2, EYFP-dynK44A fusion (UniProt Q05193); test: FLIM/FRET in live COS cells; lifetime of the ECFP donor; self-assembly
T2 sequence (looked up): T1 chain with K44A, A725R

[11] = biological target: dynI690K (assembly incompetent dynamin mutant) (UniProt Q05193); test: FLIM/FRET in fixed podocytes; donor GTPase-a488, acceptor Hudy1-a568; self-assembly
[12] = biological target: dynI690K (assembly incompetent dynamin mutant) (UniProt Q05193); test: FLIM/FRET in fixed podocytes treated with cytochalasin D; donor GTPase-a488, acceptor Hudy1-a568; self-assembly

cathepsin B (CatB, Sigma) was tested. Which “cleavage of purified dynamin by CatB, Western blot” value [1] did it give?
The value was “incubation of dynamin with CatB generated p55 in a nucleotide-independent manner”.

Which results are given for purified cathepsin L (commercial)?
cleavage of purified dynamin by CatL at pH 7.0 with GTP, Western blot [1]: addition of GTP resulted in the generation of a prominent proteolytic fragment with a molecular weight of -40 kD (p40); cleavage of purified dynamin by CatL at pH 7.0 with GTPγS, Western blot [1]: addition of GTPγS, (non-hydrolysable GTP analog) did not stimulate cleavage by CatL; cleavage of purified dynamin by CatL at pH 7.0 without nucleotide, Western blot [1]: CatL did not cause significant cleavage of purified dynamin at pH 7.0; cleavage of recombinant dynamin 1 by purified cathepsin L at pH 7.0 with GTP, Western blot with GTPase antibody [1]: addition of GTP in the assay resulted in significant cleavage of dynamin by cathepsin L; cleavage of recombinant dynamin 1 by purified cathepsin L at pH 7.0 with GTPγS [1]: Addition of GTPγS, non-hydrolyzable GTP homolog abolished dynamin cleavage by cathepsin L; cleavage of recombinant dynamin by CatL at pH 5.0 and 6.0, silver staining [1]: At pH 5.0 and 6.0, CatL was highly reactive towards recombinant dynamin, even in the absence of GTP; cleavage of recombinant dynamin by CatL at pH 5.0 and 6.0 with GTPγS, silver staining [1]: this proteolysis was completely inhibited by addition of GTP7S; cleavage of recombinant dynamin by cathepsin L at pH 5.0 and 6.0 [1]: at pH 5.0 and 6.0 cathepsin L potently proteolyzed recombinant dynamin

For “goat anti-rabbit-alexa568 (GARalexa568), negative control acceptor (antibody)”, which Mean Lifetime (γ1) [2] is on record?
Its Mean Lifetime (γ1) is 2420.

Which Mean Lifetime (γ1) [3] does the source give for “dynK44A (dominant-negative dynamin mutant that cannot bind GTP) (from UniProt Q05193 1-864) (enzyme)” here?
Its Mean Lifetime (γ1) is 2520 ps.

And the Mean Lifetime (γ1) [4]?
The Mean Lifetime (γ1) was 2310 ps.

With “DAM-Alexa568 (secondary antibody used as positive control acceptor)” as the molecule, how does the Mean Lifetime (γ1) [5] read?
The Mean Lifetime (γ1) was 1020.

What about the Mean Lifetime (γ1) [6] of the same molecule?
Its Mean Lifetime (γ1) is 1020.

B1: endogenous mouse cathepsin L induced by LPS in podocytes and kidney (34 kD cytoplasmic short form) (protein)
chain: MRMIQLHNGEYSNGQHGFSMEMNAFGDMTNEEFRQVVNGYRHQKHKKGRLFQEPLMLKIPKSVDWREKGCVTPVKNQGQCGSCWAFSASGCLEGQMFLKTGKLISLSEQNLVDCSHAQGNQGCNGGLMDFAFQYIKENGGLDSEESYPYEAKDGSCKYRAEFAVANDTGFVDIPQQEKALMKAVATVGPISVAMDASHPSLQFYSSGIYYEPNCSSKNLDHGVLLVGYGYEGTDSNKNKYWLVKNSWGSEWGMEGYIKIAKDRDNHCGLATAASYPVVN
B1 was tested. Which “p40 proteolytic fragment in cytosol of LPS-treated podocytes expressing dynK44A, Western blot” value [7] did it give?
Its value is “LPS treatment of podocytes expressing dynK44A, enzyme that cannot bind GTP, did not result in detectable levels of p40”.

What about the “p40 proteolytic fragment in cytosol of LPS-treated podocytes expressing dynR725A, Western blot” value [8] of the same molecule?
Its value is “LPS treatment of podocytes expressing dynR725A completely abolished presence of the p40”.

And the “p40 proteolytic fragment in cytosol of podocytes expressing dynR725A before LPS, Western blot” value [8]?
The value was “significant amount of p40 was present in cells expressing dynR725A prior to LPS treatment”.

And the “p40 proteolytic fragment in cytosol of LPS-treated podocytes expressing dynWT, Western blot” value [9]?
Its value is “Addition of specific cathepsin L inhibitor (Z-FF-FMK, Calbiochem), to the tissue cultured podocytes treated with LPS resulted specifically in the loss of p40”.

B2: ECFP-dynK44A fusion (protein, UniProt Q05193 1-864, looked up, not shown: large carriers)
chain: T1 chain with K44A, A725R
How did the Mean Lifetime (γ1) ps [10] turn out when B2 was run?
Its Mean Lifetime (γ1) ps is 1860 ps.

B3: dynI690K (assembly incompetent dynamin mutant) (enzyme, UniProt Q05193 1-864, looked up)
chain: T1 chain with I690K, A725R
With B3 as the molecule, how does the Mean Lifetime (γ1) [11] read?
Its Mean Lifetime (γ1) is 2360 ps.

What about the Mean Lifetime (γ1) [12] of the same molecule?
Its Mean Lifetime (γ1) is 2430 ps.
